Results reported in the supplement of paper PMC12764529.
± gives the half width of the 95% confidence interval.

How the values were obtained:
[1] = folding stability dG unfold from trypsin proteolysis; higher = more stable
Method in brief: (§1)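 Designed mini-proteins (under 80 residues, no cysteine) in a PA-tagged cDNA display construct were digested with trypsin and chymotrypsin. Each protease was used at 11 concentrations (threefold dilutions) plus a no-protease condition, followed by sequencing. K50 was inferred by Bayesian fitting of sequencing counts, and unfolding free energy was derived against a sequence-predicted unfolded-state K50 and a shared folded-state K50, per protease or combined. Only designs with AlphaFold2 dimer inter-PAE above 15 were kept.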

[2] = folding stability dG unfold from chymotrypsin proteolysis; higher = more stable
Method in brief: as §1

[3] = folding stability dG unfold (combined trypsin and chymotrypsin); higher = more stable
Method in brief: as §1

Sequence | folding stability dG unfold [1] | folding stability dG unfold [2] | folding stability dG unfold [3]
SAGGSAGGSAGGGKSITKVYTLPNGGKAVAVYNPETGKVEVYFFKPNGKLLEKKTFKAKSAGGSAGGSAGGS [r10_1044_TrMRF] | 2.18 ± 0.068 kcal/mol | 2.84 ± 0.07 kcal/mol | 2.51 ± 0.11 kcal/mol
SAGGSAGGSAGGGLGYRTLTGRVEFELNITYLTEDGSPATLNLRFELELRFVVPVPPDYPSAGGSAGGSAGG [r7_926_TrMRF] | 3.7 ± 0.14 kcal/mol | 5.54 ± 0.098 kcal/mol | 5.37 ± 0.14 kcal/mol
SAGGSAGGSAGGGLSSAPPPVVALSSSVSLVPSPSGGILTVTTTTDAGSGTTTTTTTALSAGGSAGGSAGGS [r10_1137_JUSTAS] | 2.44 ± 0.068 kcal/mol | 0.758 ± 0.025 kcal/mol | 1.71 ± 0.042 kcal/mol
SAGGSAGGSAGGGMARAEKLPSSWTLVSVTPRDGSTVVTYKLPDGSTLTLDLRPDSYDGASAGGSAGGSAGG [r7_775_JUSTAS] | 0.436 ± 0.058 kcal/mol | 1.46 ± 0.15 kcal/mol | 1.1 ± 0.075 kcal/mol
SAGGSAGGSAGGGMKVKIETTKLPNGIWRVKVYDENGNFIGEKEFTSEEELEEFKKKVASSAGGSAGGSAGG [r7_476_JUSTAS] | 2.98 ± 0.25 kcal/mol | 4.6 ± 0.14 kcal/mol | 4.49 ± 0.19 kcal/mol
SAGGSAGGSAGGGMMKTVLISLEGVDPSGGPSRRVEIELTLSPEEIPKVIEELAKAGRVLSAGGSAGGSAGG [r7_618_JUSTAS] | 0.533 ± 0.058 kcal/mol | -0.0881 ± 0.1 kcal/mol | 0.232 ± 0.099 kcal/mol
SAGGSAGGSAGGGMMLAEFLKYDPRNPTATVVSVRTFSDPEEARAEAEKRGLLVRVIEPSAGGSAGGSAGGS [r10_657_JUSTAS] | -0.45 ± 0.28 kcal/mol | 0.0192 ± 0.16 kcal/mol | -0.111 ± 0.1 kcal/mol
SAGGSAGGSAGGGMSLSYTVTTSTTVVPAPDGVTVLHPTTTTFPGGPTTTTTTVTVEPAGSAGGSAGGSAGG [r7_701_JUSTAS] | 0.872 ± 0.021 kcal/mol | -0.855 ± 0.12 kcal/mol | 0.409 ± 0.051 kcal/mol
SAGGSAGGSAGGGMVIVTREPENLTFTVYREDPSTGKLRRIGTFPVSPDELEKVLALLSSAGGSAGGSAGGS [r10_275_JUSTAS] | 1.77 ± 0.053 kcal/mol | 2.47 ± 0.074 kcal/mol | 2.2 ± 0.079 kcal/mol
SAGGSAGGSAGGGNSLSSVRVVPVTLRTSEPLEQDGDPRPREFTETTVVRITETVPPGLSAGGSAGGSAGGS [r10_118_JUSTAS] | 0.0729 ± 0.18 kcal/mol | 0.57 ± 0.082 kcal/mol | 0.356 ± 0.11 kcal/mol
SAGGSAGGSAGGGPAPGKGLVVKLEPEEFEFENFRLIVVKAVKDDKLIAEIAYLISPDESAGGSAGGSAGGS [r10_628_TrMRF] | 1.05 ± 0.12 kcal/mol | 0.823 ± 0.18 kcal/mol | 0.904 ± 0.12 kcal/mol
SAGGSAGGSAGGGPDAVRQFPPPVNLSVEVTSYTSPSSSLSNGKPEKSTFTTLNPTAGVSAGGSAGGSAGGS [r10_877_JUSTAS] | 0.0381 ± 0.13 kcal/mol | 0.0744 ± 0.19 kcal/mol | 0.139 ± 0.11 kcal/mol
SAGGSAGGSAGGGSFVLTRHTRTGLRRRVYFDPETGELTVELETGTESRTTLSPLSPDLSAGGSAGGSAGGS [r10_376_TrMRF] | -0.215 ± 0.2 kcal/mol | 0.748 ± 0.064 kcal/mol | 0.489 ± 0.058 kcal/mol
SAGGSAGGSAGGGSITITFKHPDGGEVTIEITPPEPTVRVTVTLPNGEKLEYEFDFVPASAGGSAGGSAGGS [r10_595_TrMRF] | 3.24 ± 0.22 kcal/mol | 3.68 ± 0.11 kcal/mol | 3.58 ± 0.14 kcal/mol
SAGGSAGGSAGGGSMKEKKLTVGDKEIIVTYNPETGTATVKSPENSVSVFPLEELKKLLSAGGSAGGSAGGS [r10_1140_JUSTAS] | -1.25 ± 0.93 kcal/mol | 0.741 ± 0.1 kcal/mol | 0.318 ± 0.24 kcal/mol
SAGGSAGGSAGGGSMSITVPMSPEEGKKLAEEIKEKLKSEGNPVEVTVTIVSPTDPSLLSSAGGSAGGSAGG [r7_776_JUSTAS] | 0.627 ± 0.04 kcal/mol | 0.167 ± 0.066 kcal/mol | 0.41 ± 0.17 kcal/mol
SAGGSAGGSAGGGSMTLTEVFVDPETGTRTVRTTTLYTLPNGTLTSTTTTTVEPLPGELSAGGSAGGSAGGS [r10_1258_JUSTAS] | 1.51 ± 0.022 kcal/mol | 1.87 ± 0.025 kcal/mol | 1.76 ± 0.043 kcal/mol
SAGGSAGGSAGGGTAEELAKELEDLGYKVKLEPEGDYLLLTVTDPDNDKPYVILLDPETISAGGSAGGSAGG [r7_0_TrMRF] | 1.25 ± 0.067 kcal/mol | 0.776 ± 0.028 kcal/mol | 0.991 ± 0.035 kcal/mol
SAGGSAGGSAGGGVEVLSAERRRIPETGLVLVVIREKEPLKPIVVLMPEEDAVVFLKHFSAGGSAGGSAGGS [r10_988_TrMRF] | 0.14 ± 0.094 kcal/mol | 0.92 ± 0.1 kcal/mol | 0.703 ± 0.091 kcal/mol
SAGGSAGGSAGGGVVTLPDLKGLSEEELKALAEEIAKKLGLENVPLKLEFGEDGNLTLVLSAGGSAGGSAGG [r7_810_JUSTAS] | 2.15 ± 0.077 kcal/mol | 1.24 ± 0.054 kcal/mol | 1.74 ± 0.11 kcal/mol
SAGGSAGGSAGGHYIRAEIEIKYEHPGNGQEQTMTIPIEIPIPPPPPVSAEDRAKQNGIGSAGGSAGGSAGG [r7_79_TrROS] | 0.318 ± 0.084 kcal/mol | 0.855 ± 0.041 kcal/mol | 0.669 ± 0.065 kcal/mol
